Assay results published in patent publication US20040053822A1.

Biological target: HLA-A*2401 (human)
Assay: inhibition of 125I-labelled standard peptide binding to purified HLA
Conditions: not given

In order of rising relative binding ratio (IC50 standard peptide / IC50 test peptide):
1. MAGE3 97-105 (position 97, 9 amino acids) (peptide)  0.0049
2. MAGE3 221-231 (position 221, 11 amino acids) (peptide)  0.026
3. MAGE3 300-307 (position 300, 8 amino acids) (peptide)  0.042
4. MAGE3 195-204 (position 195, 10 amino acids) (peptide)  0.05
5. MAGE3 150-160 (position 150, 11 amino acids) (peptide)  0.091
6. MAGE3 195-203 (position 195, 9 amino acids) (peptide)  0.42
7. MAGE3 142-150 (position 142, 9 amino acids) (peptide)  0.53
8. MAGE3 300-309 (position 300, 10 amino acids) (peptide)  0.59

Biological target: HLA-A*0301 (human)
Assay: competition vs 125I standard peptide, purified HLA-A*0301
Conditions: not given

In order of falling relative binding ratio (ratio to standard peptide):
1. MAGE3 peptide, position 115, 10 amino acids  0.0066
2. MAGE3 peptide, position 115, 9 amino acids  0.0045
3. MAGE3 peptide, position 267, 10 amino acids  0.0032
4. MAGE3 peptide, position 118, 9 amino acids  0.0016
5. MAGE3 peptide, position 118, 10 amino acids  0.0014

Biological target: HLA-A*0301 (human)
Assay: 125I-probe competition, purified HLA
Conditions: not given

In the case of “MAGE2 and MAGE3 peptide, position 115, 9 amino acids”, the relative binding ratio is reported as 0.0045.

Biological target: HLA-A2401 (human)
Assay: inhibition of 125I probe peptide binding to purified HLA
Conditions: not given

In order of falling relative binding ratio (IC50 standard/IC50 peptide):
1. MAGE3 peptide, position 300, 10 amino acids  0.59
2. MAGE3 peptide, position 142, 9 amino acids  0.53
3. MAGE3 peptide, position 195, 9 amino acids  0.42
4. MAGE3 peptide, position 150, 11 amino acids  0.091
5. MAGE3 peptide, position 195, 10 amino acids  0.05
6. MAGE3 peptide, position 300, 8 amino acids  0.042
7. MAGE3 peptide, position 221, 11 amino acids  0.026
8. MAGE3 peptide, position 97, 9 amino acids  0.0049
9. MAGE3 peptide, position 270, 9 amino acids  0.0006
10. MAGE3 peptide, position 268, 11 amino acids  0.0004

Biological target: HLA-A*0301 (human)
Assay: competition with 125I probe peptide, purified HLA
Conditions: not given

MAGE2.71 11-mer … (peptide) showed an IC50 of 1 µM.

Biological target: HLA-A*6802 (human)
Assay: competition with 125I probe peptide, purified HLA
Conditions: not given

In order of rising IC50:
1. MAGE3.174 11-mer … (peptide)  4.49 µM
2. MAGE2.112 11-mer … (peptide)  7.69 µM

Biological target: HLA-A*0203 (human)
Assay: competition with 125I probe peptide, purified HLA
Conditions: not given

MAGE3.174 11-mer … (peptide) was tested, and the IC50 was 0.769 µM.

Biological target: HLA-A*6802 (human)
Assay: competition with 125I probe peptide, purified HLA, gel filtration
Conditions: scale: ratio

Substance “MAGE3 peptide, position 220, 9 amino acids” has a relative binding ratio of 0.0012.
